Test results from publication PMC12538437, “Branched DNA processing by a thermostable CAS-Cas4 from Thermococcus onnurineus: Expanding biochemical landscape of nuclease activity”.

Target: T1, TON_0321 (CAS-Cas4) (Thermococcus onnurineus NA1, UniProt B6YTB9 1-222)
T1 sequence: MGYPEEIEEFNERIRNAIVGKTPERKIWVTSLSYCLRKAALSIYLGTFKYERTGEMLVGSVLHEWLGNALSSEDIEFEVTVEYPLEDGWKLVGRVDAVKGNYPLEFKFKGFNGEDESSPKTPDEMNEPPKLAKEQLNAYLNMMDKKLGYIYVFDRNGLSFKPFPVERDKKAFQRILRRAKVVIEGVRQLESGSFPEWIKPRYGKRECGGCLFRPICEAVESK
Assay: fluorescence anisotropy; 20 mM ZnSO4; 20 mM Tris-HCl pH 8.0, 100 mM NaCl, 0.5 mM DTT, 0.1 mg/ml BSA, 20 mM ZnSO4, 25 °C; 35 nM DNA (25 nM labeled), 0-1600 nM protein
Settings: protein: recombinant; tags: N-terminal 6xHis (pET28a); label: 5' 6-FAM; single strand

ATTCTACCAGTGCCTTGCTAGGACATCTTTGCCCACCTGC (ssDNA) [ssDNA (Y0-1F)]
binding result: binds
